From the RNAGym collection of RNA variant scans (doi:10.1073/pnas.2313332121)
This sample holds only a part of the variants without activity.

B1: TPR 5TU (parent)
chain: GGAUCUUCUCGAUCUAACAAAAAAGACAAAUCUGCCACAAAGCUUGAGAGCAUCUUCGGAUGCAGAGGCGGCAGCCUUCGGUGGCGCGAUAGCGCCAACGUUCUCAACUAUGACACGCAAAACGCGUGCUCCGUUGAAUGGAGUUUAUCAUG

Variants of: B1
Experiment: polymerase ribozyme fitness, log enrichment relative to wild type (log ratio); higher = more active; in vitro selection for triplet polymerase activity
Procedure, shortened: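 Both subunits of a heterodimeric triplet polymerase ribozyme were given their own mutant library, built by PCR and transcribed. Each library was annealed with a biotinylated primer, the partner subunit and triplets, incubated frozen at −7 °C, and its extended constructs gel-excised, captured on streptavidin beads and amplified by RT-PCR, all in one round done in triplicate. Fitness is the logarithm of genotype enrichment relative to wild-type enrichment, with replicates averaged by inverse-variance weighting. That logarithm is base 2, and Illumina-sequenced genotypes needed ≥10 input reads and ≥1 read per output.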

Row | Variant | polymerase ribozyme fitness (log ratio)
1 | GGAUCUUCUCGAUCUAACAAAAAAGACAAAUCUGCCACAAAGCUUGAGAGCAGCUUCGUAUGCAGAGGCGGCAGCCUUCGGUGGCGCGAUAGCGCCAACGUUCUCAACUAUGACACGCAAAACGUGUGCUCCGUUGAAUGCAGUUUAUCAUG | -3.86
2 | GGAUCUUCUCGAUCUAACAAAAAAGACAAAUCUGCCACAAAGCUUGAGAGCAGCUUCGGAUGCUGAGGUGGCAGCUUUCGGUGGCGCGAUAGCGCCAUCGUUCUCAAAUAUGACACGCAAAACGCGUGCUCCGUUGAAUGGAGUUUAUCAUG | ≤ -4.2
3 | GGAUCUUCUCGAUCUAACAAAAAAGACAAAUCUGCCACAAAGCUUGAGAGCAGGUUCGGAUGCAGAGGCGGCAGCCUUCGGUGGAGCGAUAGCGCCAACGUUCUCAACUAUGACACGCAAAACGCGUGCUCCGAUGAAUGGAGUUUAUCAUG | ≤ -4.2
4 | GGAUCUUCUCGAUCUAACAAAAAAGACAAAUCUGCCACAAAGCUUGAGAGCAGCUUCGGAUGCAGAGGCGGCAGCCUUCGGUGGCGCGAUAGCGCCAACGUUCUCAACUAUGACACGCAAAACGCGUGCUCCGUUGGAUGGAGUUUAUCAUG | -2.32
5 | GGAUCUUCUCGAUCUAACAAAAAAGACAAAUCUGCCACAAAGCUUGAGAGCAGCUUCGGAUGCAGAGGAGGCAGCCUUCGGUGGCGCGAUAGCGCCAAUGUUCUCAACUAUGACACGAAAAACGCGUGCUCCGUUGAAUGGAGUUUAUCAUG | ≤ -4.2
6 | GGAUCUUCUCGAUCUAACAAAAAAGACAAAUCUGCCACAAAGCUUGAGAGCAGCUUCGGAUGUAGAGGCGGCAGCCUUCCCUGUCGCGAUAGCGCCAACUUUCUCAACUAUGACACGCAAAACGCGUGCUCCGUUGAAUGGAGUUUAUCAUG | ≤ -4.2
7 | GGAUCUUCUCGAUCUAACAAAAAAGACAAAUCUGCCACAAAGCUUGAGAGCAGCUUCGGAUGCAGAGGCGGCAGCCUUCGGUGGCGAGAUAGCGCCAACGUUCUCAACUAUGACACGCAUAACGCGUGCUCCGUUGAAUGGUGUUAAUCAUG | ≤ -4.2
8 | GGAUCUUCUCGAUCUAACAAAAAAGACAAAUCUGCCACAAAGCUUGAGAGCACCAUCGGAUGCAGAGGCGGCAGCCUUCGGUGGCGCGAUAGCGCCAAUGUUCUCAACUACGACACGCAAAACGCGUGCUCCGUUGAAUGGAGUUUAUCAUG | ≤ -4.2
9 | GGAUCUUCUCGAUCUAACAAAAAAGACAAAUCUGCCACAAAGCUUGAGAGCAGCUUCAGAUGCAGAGGCGGCAGCCUUCGGUGGCGCGAUAGCGCCAACGUUCUCAACUAUGACACGCAAAACGCGUGCUCCGUUGAAUGGAGUUUAUCAUG | -1.53
10 | GGAUCUUCUCGAUCUAACAAAAAAGACAAAUCUGCCACAAAGCUUGAGAGCAGCUUCGCAAGCAGAGGCGGCAGCCUUCGGUGGCGCCAUAGCUCCAACGUUCUCAACUAUGACACGCAAAACGCGUGCUCCGUUGAAUGGAGUUUAUCAUG | ≤ -4.2
11 | GGAUCUUCUCGAUCUAACAAAAAAGACAAAUCUGCCACAAAGCUUGAGAGCAUAUUCGGAUGCAGAGGCGGCAGCCUUCGGUGGCGCGAUGGCGCCAACGUUCGCAACUAUGACACGCAAAACGCGAGCUCCGUUGAAUGGAGUUUAUCAUA | ≤ -4.2
12 | GGAUCUUCUCGAUCUAACAAAAAAGACAAAUCUGCCACAAAGCUUGAGAGCAGCUUCGGAUGCAGAGGCGGCAGCCUUCGGUGGCGCGAUAGCGCCAACGUUCUCACCUAUGACACGCAAAACGCGUGCUCCGUUGAAUGGAGUUUAUCAUG | ≤ -4.2
13 | GGAUCUUCUCGAUCUAACAAAAAAGACAAAUCUGCCACAAAGCUUGAGAGCAGCUUCGGAUGCAGAGGCGGCAGCCUUCGGUGGCGCGAUAGCGCCGACGUUCUCAACUAUGACACGCAAAACGCGUGCUCCGUUGAAUGGAGUUUAUCAUG | -1.44
14 | GGAUCUUCUCGAUCUAACAAAAAAGACAAAUCUGCCACAAAGCUUGAGAGCAGCUUCGGAUGCAGAGGCGGCCGCCUUCGGUUGCGCGAUAGCGCCAACGUUCUCAACUAUGACACUCAAAACGCGUGCUCCGUUGAAUGGAGUUUAUCAUG | ≤ -4.2
15 | GGAUCUUCUCGAUCUAACAAAAAAGACAAAUCUGCCACAAAGCUUGAGAGCAGCUUCGGAUGCAGAGGCGGCAGCAUUCGGUGGCGCGAUAGCGCCAACGUUCUCAACUAUGACACGCAAAACGCGUGCUCCGAUGAAUGGAGUUUAUCAUG | ≤ -4.2
16 | GGAUCUUCUCGAUCUAACAAAAAAGACAAAUCUGCCACAAAGCUUGAGAGCAGCUUCGGAAGCAGAGGCGGCAGCCUUCGGUGGCGCGAUAGCGCCGACGUUCUCAACUAUGUCACGCAAAACGCGUGCUCCGUUGAAUGGAGUUUAUCAUG | -4.18
17 | GGAUCUUCUCGAUCUAACAAAAAAGACAAAUCUGCCACAAAGCUUGAGAGCAGGUUCGGAUGCAGAGGCGGCAGCCUUCGGUGGCGCGAUAGCGCGAACGUUCUCAACUAUGAUACGCAAAACGCGUGCUCCGUUGAAUGGAGUUUAUCAUG | ≤ -4.2
18 | GGAUCUUCUCGAUCUAACAAAAAAGACAAAUCUGCCACAAAGCUUGAGAGCAGAUUCGGAUGCAGAGGCGGCAGCCUUCGGUGGCGCGAUAGCGCCAACGUUCUCAACUAUGACACGCAAAACGCGUGCUCCGUUGAAUGGAGUUUAUCAUG | -2.07
19 | GGAUCUUCUCGAUCUAACAAAAAAGACAAAUCUGCCACAAAGCUUGAGAGCAGCUUCGGAUGCAGAGGCGGCAGCCUUCGGUUGCACGAUAGCGCCAACGUUCCCAACUAUGACACGCAAAACGCGUGCUCCGUUGAAUGGAGUUUAUCAUG | ≤ -4.2
